Reference: the NTF2 design screens of Basanta et al. (2020)

experiment: protease stability score; higher = more stable; yeast display proteolysis, trypsin and chymotrypsin;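 also: log10 excess protease needed over predicted unfolded state with 0 meaning unfolded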

| Sequence | protease stability score |
| --- | --- |
| DDKDAKRLLTLWHQIEEGNPEEVQKMMDENVHVSIGDKEVHGREEDARQRKEEVDSMRVSLKIDHYSDNNGRIVVDATQENETNGKPSTKRFVIEARMDNGTLKRLQIEDDK | 0.097 |
| DDKDIQEIAHEINHAWEEGDSKRFADLLSENARVDVGDKDYEGREFNKKWMKDIRDRVDHLEIDHVSAKGNTVEVTMVMNINGRNATVVVEYTFHNGQVRHAQLKFTSEEDKRKFHG | 0.453 |
| DDKDLKDVAEKVMHAVQNGDPHEARKMFDKDARIIVGDTEVHGRSNIMHLMTEFRKRVDHAEIKDLTVNGEDVRIDMVLDINGKKHRRTWEVRVSNGRARHAHLDPKDLERQSK | 0.481 |
| DDKDLRRVADVMETNDPDRLADLVDENARFIYGDKTYKGEKEATKVWETLYHQVDHKQIHTWDVRGDKLSVKMEMVVNGHDIQVHVRVDVRNGRIKQVELRATNEDDQRFIKRIWG | 0.218 |
| DDKDMEQIKRLIEQLLTGDPDSAKRNFDENARVTIGDKTIEGRDDMRRWVDTVHKHAQLEITHMTVKVHGDKVKVNMDARRTHNGRPERATFKMDVELQNGKVKNQSIEIRK | 0.223 |
| DDKDQHEEVEKFARNVVSGNSDELRKQMDKDVRANVGDKTLRGREEVADFWKHMRDRIDHAEIKEIRFHNGEARIVMQFVHNGRTKQINIVMEFHDGHVKRLRVEDG | 2.73 |
| DDKDRRRVAEEVVRAFVQNDPDRLVELADEDARVHYGDRELHGREKARHMLRKFKEQVDTATYQDFNVHGDKVDIKLTAHFNGRTHTQTVIVVIHNGRIKFIEIRSS | 1.22 |
| DDKDVEKAVRVMQTNDPDKYERMLDEDVSMVVGDQTYHGRETVNKVYKHYLERVDHIKITRYTIRNGVATVRYVVEWNGKSADVVVHVEVHNGRAKRFEYDVRDSEDKKNMEEMIK | 0.358 |
| DDKEAHKRARQLVRIVQTGNESDVRKLFDKNARVVIGDKTFHGRENVQKAVREMRERVDHVQVHRVRAQGNKVRALVQYDINGKQEHYNFDMTFHNGRAKSMVVKES | 0.812 |
| DDKEARKFAKDYVDAMKTGDEKRIEEMVDPNVSFQIGDQTYHGREQLKQALRSRRHHADHVQVDHVEAQGDKIDIDVQFNINGRDDKVKIKIRVHNGRIKEVVIEKK | 0.99 |
| DDKEEAESIAKTLQKILDTGNEEDYLNMADEDVEINIGDKHYRGREEFLKWVQKMTRQVDHLRIDVKSVEVSGDKAHIQYHLELNHDGKNETHKLVMVARKSNGRLTIKKITHQ | 1.19 |
| DDKEKAEKFLTKWVEAIKTGNEEQLNELADPNVRFKYGDRVIHGREQQAKHNKELRERADRMEFRVDDVDIRPGKVVVHARYTVNINGKEETHQYTATADVKNGRLQITEQQNS | -0.092 |
| DDKERDHLRKLMEEGDFTEIAENADPNAKFVIGDKEIHGREQFQTVAKRRQERVDHFDVKRVSVSGNKVRATMVMVVDGEKIHFTVIIEIDNGRVKSVRLQYRDETVKRQIEEAMS | -0.213 |
| DDKEVRRNAEIALKALRTGDEDDAMEQADEDAKMVIGDKEVHGREKLREAVKDFKEEADHVQVRHFEVQNGRVNAEMEVDVNGQKQIYVMHVEVHNGKIKEINIQHK | 0.787 |
| DDKHAEEVAELMTRNNFKQLAHQADPNVKIVVGEKKWHGREQMRTFMKILTKRVDHLNIQSYDVDNGRVKIDYVVNIDGQEIHVRVEIEFKNGRIQRYVLRATSDENQKELNKALS | 0.08 |
| DDKHIQTQAERIAKALQTGDPDKFKNEMRKDVQVDVGDKRLHGREEVAKWMEDKHKRADRITYDSVEASGDKITMTVVIQINGRKKHFQFEATQSNGKIVHARERDQ | -0.393 |
| DDKHKVEQLLRRADDALRTNDERKYIEMVDKDVRITVGDKQIHGKDEAVKFLRTLHNTYDHVQIRVESIENDGEKFKVIVQITAKHNGKETSHTLSFDAQRHNGQVRVKHASMG | 1.21 |
| DDKKAQDFARKFADNLRTGNERQWEKMFDENVRIKYGDKTLHGREVARKEARTFHEQVDHMEVRSITAQGNQLVIMFEVKHNGRTDRMVWRAKVENGKIQHQTVTSQ | -0.084 |
| DDKKQQNMAKHFADAIRRGDPKTFSDLADPNVTAQYGDKSIHGKDEMREFWKQYHDRVDSVDVEKFSVRGDKIDIKMRAVVDGKDRVLDLDIQLHNGRATHIKVNPDQVREMDK | 1.38 |
| DDKKRVTQVFREWREALQTGNEEELHKQADKDVKFDVGESEFHGREKFVKHVQERLTQVDHLDIKMHSLKVDNGKADVSVIYRQNHNGKEDETTAVIIMTLSNGHAKIDTVKYG | -0.195 |
| DDKKVHKAANRFVEMFRTGNPDDLHKQIDKDAHATVGDKTYRGRTHVVRQIIEMVERVDHVEVKSISVDGDHAKIDMVLRHDGQEERVDVVMRVHNGRFKSIEFQEQ | 0.512 |
| DDKKVRLARSWMQNVRENNEERLQKLIDPNAKVRIGNKVVNGDEEFRRQVKHRKEHMRLDVEIESMTFQGDHVSATYVFRQNVNGTPYSDRVEVHIKMENGRIKHIDARVPEEKLRELSS | -0.106 |
| DDKNRELLTEVLKARETGDPDRIHELLDPNVKVKVGNKTLRGRNEIAKWWKRQTDEMRIEESITHIDVHNGKARMEASARVEINGRPVTYTFIMKAVIHNGRVKEINIHIPEEKMQEVTQ | 0.948 |
| DDKQAKELVKLMHTGDWETLINNMDPNARVVIGNKTYHGRHDAQKLLELWQKRVDHQDIHDVKARGDQLQVNMVFVINGVKFELVITVKFHNGRIESVQYDVTDRDQERKLEDLMS | 1.67 |
| DDKQLDERVKEIQEVIRDNDPDSMKHLMDPNARMFVGDKEFHGRDEIVRHLKDLWHRVDHFHIKDFRASGNRAVVIAVFHVNGVTAHFKIFVVFQNGRIKQLRIKWRNEDEERRVRS | 0.674 |

| Sequence | protease stability score |
| --- | --- |
| DDKQQMEEMLQKYQEALDTGDPEKLASLFDENAEVRIGDKVYRGHEDIKRAAKHLLDNVDHIEIRLRSLETRPGRIHARLQMNVRHNGKNTTKTLHVVARKQGDEFVVEHMEVE | 2.07 |
| DDKRKADEFAKELVKAVQTGDSDNIRKLLDPNARINVGEKHYQGKDSMAKIMVRIAEDVDHISARVISVRDHNGSAVIHIEVQNNHNGRNSRTRVILHLTDHNGRIKLRERREG | 0.749 |
| DDKTIKENLKVFNRGNPDDMKTLMDKDVRLEVGEKSVHGREQAQTWQDRYERQVDHRRVKSYSMNGNNVVADMVVQVNGREYEVRLEVHVHNGRIKVLRLEVRDEDDRRNLKRLLS | 0.211 |
| DDNEVETVRELIEQLETGDPDKFKEMVDKDVNINVGNKHVHGREEAVEQIRKEAREISFRIKVDRVEAHNGHVRVDFKFDAEVNGQPRSFRAIMVLEIEDGVVKHIELQMDRNQQQRLEK | 1.1 |
| DDNLNRKVKKFWKVLQKGNPHEAKKYFDPNAHIVIGDQRIHGMDKFNRRMEHMKSHIRVQIDTLRMQDNGSQVDVTFEAVFNHNGRPKRYRARVRFEVHNGKAKSLTLKEDQ | 0.265 |
| DDNLRKHVDNLIKLLQDGNPQELVNMADPNARVTIGDEQVHGREQLHEDWHRQAKEMRIQWDHYRVDAQGDKVRVNATRTLQTNGKPDSERFHVEMRLQGDKLQTERVDVHK | -0.265 |
| DDQAKRIVDEILTNMRTGDEDKLKTLIDPNARARVGEKEVHGWDDALKEIADKLRDIRIQIDRFSVKVTGDKVKIDFTAQNEHNGQPSTKKYERNYKIKNGRVKHFEDVSTQ | -0.192 |
| DDQALRLLEEWLKAVQEGDQERAHEMADPNAKFEVGDKTINGMDDVNEQIRRDTESMRYQVQNVHSITRPNHVQADVQFENEHNGNPDTNRMVIQARATNGRIQSLRIQDKK | 0.058 |
| DDQDIRHILDQWRTGDFDQVRNQADENANIVYGDKRYHGREQLQEWMKTLKEQIDHFHIRSITQKGDKARFEAEADVNGVDVKFSVVISVHNGRVKFFEFQWTSEELLERIKHEIG | 0.942 |
| DDQDLAKRLLDQLTKALQHGDERQLQRLMDKDVRVHIGDKNIHGREQAATFWVHLRKHVDRLSVRVKHVDIQGERVVFDMVFVFNHNGRQEHVRVVIVAKKDGDKIRIKRASQN | 2.16 |
| DDQDRSHAVRLMRTGNFKEWADQADKDVSMQVGDKEVRGREQVIKMLKRLQEAADHVQVKSIHTQGEKMKADVTININGDQIRVIIEVVVEGDKLKELRIQFTSEHDEKIMHEQLQ | 1.14 |
| DDQEDAEKAARRFNKIVNENNFDDLLNQFDPNARIQVGDKQYHGRSEISKFMQKWKRQIDHLEAHLKDVKVDNGRIDVKFKFQFHKNGTRVDRDMSLDARRQGDQINIQELHLG | 0.198 |
| DDQEERDWNERMKQVLRTGDEHRLEQLMDENVRMRVGDSVVTGREKVRQVFHELMKQADKIEVKSVSAQGNEVLIRFVLNHNGKNDDVVIEVRVHNGRIKEIVIRSK | -0.001 |
| DDQEIAEQAARDFDTAVQEGDEDQIVRMADPNVQLQIGDERYRGREDLRKWIKDIRRQVDHVDVRVRDLKVQGEHVRARIEVQYTENGKTRRYQFEMTNNIHNGRVRMTQVNEK | 0.948 |
| DDQELAEDAQRQFQEVLKTGDPKRANELMDEDARLEVGDTQLHGRERVAKHLSDLRKQADHIDVRVDTIRVHNGRVDADVRIRITKNGQNREFRARLYFTVQGDKVKMKRLQES | 1.38 |
| DDQERREIAKNFQRGNEQVVKKLVDPNARIRVGDKTLHGRDQMSHVFKRLQEQVDHIDVKHYTISGEHIVIDAIFVINGKNIRMVIVVQVENGRVKRVDFKYTNEEQKKQLERDLS | 0.004 |
| DDQEVKKLAHEVQKILEHGDPDQFADLFDKDARMTVGDKDLHGRERIRELAQRQQDRIDHVQLEEYQVHNGRVVLKMRVNVNGHDETINMTLHQRNGKVKEFTQQSR | 0.071 |
| DDQHHAERFVEHVLKQLQTGNENDISKMVDENARVEYGDEEITGRESVVKHLIKEARRVDSIDLKVKSVSKEGDKINVTLVAVLDVNGRKDKRQFRVVMAKQGDKTNIISQHEK | 0.965 |
| DDQHQQKFAEEFNKNLEKGDFHRIAQMADENVRVRYGDKSVNGREHMSQFMKELRDRVDHMEIKDFHASNGKITITFVVNVNGKNITLHISIRVSNGRIHEVSLDPDQLKSLES | 2 |
| DDQKARRLVERFIRALQHGDEDLARQLFDKNAKINIGDKTLTGREDVAKYVHHVHRHVDDVSVKSIQVDGDKAEVRVQFDINGKQHQMTFSAKYRNGRVQSATYKSQ | 0.524 |
| DDQKEIEKVLEVIKRMDTGDEKNVKEMFDPNARASVGERTYHGREDIQSFARELKERVDHVRIDSMSAHGDKATVDLRMNENGRTERYSVRVQIHNGRARHLRYTTK | -0.219 |
| DDQKKKELMQKMVEAYLSGHHEEVEKLGKDDGKVEAGDRKYEGSEQARKAAKQFKTYGVELRITDMQQDGDRLDVKAEAHMGGVTWEFTATVTADGGKVDKIQIDASDDAKKAIKDG | 0.725 |
| DDQKNLEKWVRDFQEVNKTGDPDRFRNLFPPNAEMTIGDKTIKGSETVREYMEHLVNRYDHLDVQVESIHAEGDKLTVKLRLVFNTNGKNDQYVNKVLLDDHNGRLKAHEVHQE | 0.7 |
| DDQKTANHLNKQFKDVWTSGDEHRLQELMDPNVRVDVGDKRYKGDEQVNKYFIDLLRNVDHVDFDVKDMKARGEKVLLVVDIRVDINGKRHRFNARQIFTVEGDQARVKVYHDG | 0.653 |
| DDQKVRVASELLKAIERGDPDQARELMDENAKMVIGETTFTGRDEAAKWISELKKHMRVQIQSVTFHDHNGQIVVNVTFEANINGDPFTMNLIVRVQVHNGRVQNVHYRLSEEQKRRLEQ | 0.969 |
